Key:
Settings in all cases: 20 nM; 72 h
[1] = tested on: MCF10A; assay: percent viability (nuclei count relative to siNT); higher = more viable cells
Protocol: (§1)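 After 72 h, cells were fixed and stained with Hoechst and anti-fibrillarin, and nucleoli per nucleus were counted with CellProfiler. Values are plate-adjusted percent effect for the one-nucleolus and 5+ nucleoli phenotypes, normalised to siNT (0%) and to the positive controls siNOL11 or siKIF11 (100%), as the mean of biological triplicates. Percent viability is the nuclei count relative to siNT.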

[2] = tested on: MCF10A; assay: one-nucleolus phenotype percent effect (relative to siNT 0% and siNOL11 100%); higher = more cells with one nucleolus (ribosome biogenesis inhibition)
Protocol: as §1

[3] = tested on: MCF10A; assay: 5+ nucleoli phenotype percent effect (relative to siNT 0% and siKIF11 100%); higher = more cells with five or more nucleoli
Protocol: as §1

Sequence | percent viability [1] [%] | one-nucleolus phenotype percent effect [2] [%] | 5+ nucleoli phenotype percent effect [3] [%]
CCUGAGCCCGGGCCGCGCAG [hsa-miR-1199-5p] | 71.4 | -24.2 | 27.4
CCAGGAGAUCCAGAGAGAAU [hsa-miR-4768-3p] | 32.6 | 0.373 | 1.69
AAAAGUAAUUGCGAGUUUUACC [hsa-miR-548a-5p] | 172 | -20.8 | 9.73
CCUGAUCCCACAGCCCACCU [hsa-miR-3151-3p] | 66.1 | -1.47 | 2.64
GGACCCACCCGGCCGGGAAUA [hsa-miR-1180-5p] | 75.2 | -33.8 | 38.4
UGGAAUGUAAAGAAGUAUGUAU [hsa-miR-1] | 38.5 | 8.45 | -15.8
ACUCCAAGAAGAAUCUAGACAG [hsa-miR-5695] | 183 | -26.7 | 39.3
AGGGGUGGUGUUGGGACAGCUCCGU [hsa-miR-608] | 10.6 | 8.02 | -9.99
AAGUCCCACUAAUGCCAGC [hsa-miR-5588-3p] | 42.5 | 6.67 | -3.98
CGGGCGUGGUGGUGGGGGUG [hsa-miR-1268b] | 36.5 | 8.5 | 35.6
UUGUGGAUCUCAAGGAUGUGCU [hsa-miR-4752] | 31.5 | 43.7 | -34.7
CAGUUGGGUCUAGGGGUCAGGA [hsa-miR-4259] | 16 | 31.8 | -30.7
UUUCCCUUCAGAGCCUGGCUUU [hsa-miR-4755-5p] | 52.8 | 3.84 | 1.53
CUCUGGGAAAUGGGACAG [hsa-miR-4314] | 25.6 | 11.2 | -5.34
UUCUCCAAAAGGGAGCACUUUC [hsa-miR-519e-5p] | 39.5 | -3.64 | 4.42
CCCAGUGUUUAGACUAUCUGUUC [hsa-miR-199b-5p] | 170 | -14.4 | 26.5
UCAGCAUUCAUUGGCACCAGAGA [hsa-miR-7157-5p] | 30.6 | 13.5 | -18.8
AACUAGCUCUGUGGAUCCUGAC [hsa-miR-4661-5p] | 13.9 | 21.8 | -18.4
UAGGAGGGAAUAGUAAAAGCAG [hsa-miR-4779] | 15 | 54.7 | -25.8
AAAGCUGGGUUGAGAAGG [hsa-miR-320e] | 28.6 | 3.44 | 2.27

Sequence | percent viability [1] [%] | one-nucleolus phenotype percent effect [2] [%] | 5+ nucleoli phenotype percent effect [3] [%]
UAAAGUGGCAGAGUAUAGACAC [hsa-miR-4796-3p] | 75.7 | -1.57 | -8.21
AAGCUUUUUGCUCGAAUUAUGU [hsa-miR-208b-5p] | 108 | -24.2 | -1.23
UGGAAGGGAGAAGAGCUUUAAU [hsa-miR-3202] | 21.6 | 62.8 | -35.3
UCUCUCUCCCACUUCCCUGCAG [hsa-miR-7110-3p] | 25.4 | -0.286 | 1.36
ACCAGGAGGCUGAGGCCCCU [hsa-miR-665] | 30.2 | 40.7 | -29.1
GGGACUAGGAUGCAGACCUCC [hsa-miR-6503-3p] | 49.8 | 9.94 | -6.73
AAUCCUUUGUCCCUGGGUGAGA [hsa-miR-501-5p] | 33.2 | 22.1 | -22.9
ACUCAGUCAUGGUCAUU [hsa-miR-4264] | 95.1 | -7.28 | 26.3
CGCCGCGCGCAUCGGCUCAGC [hsa-miR-6869-3p] | 28.8 | 4.08 | -29.2
UCCGUCUCAGUUACUUUAUAGC [hsa-miR-340-3p] | 74 | 1.48 | 26.3
CAGUUCUGCUGUUCUGACUCUAG [hsa-miR-6874-3p] | 28.9 | -4.11 | -30.6
ACAGCACUGCCUGGUCAGA [hsa-miR-383-3p] | 54.9 | -8.43 | -19
GGCUAGCAACAGCGCUUACCU [hsa-miR-621] | 51.6 | 15.2 | -15.8
AGGUUACCCGAGCAACUUUGCAU [hsa-miR-409-5p] | 21.8 | 42.3 | -20.6
GCAGCCCAGCUGAGGCCUCUG [hsa-miR-4690-3p] | 119 | -17.1 | 21.1
UUUAGAUUGAACAUGAAGUUAG [hsa-miR-4760-5p] | 83.5 | -20.8 | 46.3
UCAAGGCCAGAGGUCCCACAGCA [hsa-miR-3922-5p] | 30.9 | 6.44 | -12.7
GCCUGCUGGGGUGGAACCUGGU [hsa-miR-370] | 45.3 | 12.5 | -25.5
CGGCUCUGGGUCUGUGGGGA [hsa-miR-760] | 53 | 7.07 | -2.61
GUGAAUUACCGAAGGGCCAUAA [hsa-miR-183-3p] | 56.8 | 9.97 | -32

Sequence | percent viability [1] [%] | one-nucleolus phenotype percent effect [2] [%] | 5+ nucleoli phenotype percent effect [3] [%]
UCAGGCAGUGUGGGUAUCAGAU [hsa-miR-4692] | 23.4 | 23.2 | -11.4
GUGAGGCGGGGCCAGGAGGGUGUGU [hsa-miR-6765-5p] | 72.9 | -21.4 | 16
AACACACCUGGUUAACCUCUUU [hsa-miR-329] | 46.9 | -0.532 | 4.45
UCUCAGUAAGUGGCACUCUGU [hsa-miR-4797-3p] | 47.4 | 57.2 | -38.9
CAGGCACGGGAGCUCAGGUGAG [hsa-miR-3622a-5p] | 27.1 | 42.3 | -21.7
UUCGCGGGCGAAGGCAAAGUC [hsa-miR-3124-5p] | 32.5 | 3.56 | 18.7
UUUUAAGGACACUGAGGGAUC [hsa-miR-7856-5p] | 70.5 | -30.1 | 57.8
UCUCUCUGACUCCAUGGCA [hsa-miR-6817-3p] | 39.3 | 1.99 | 1.83
AGGUGUUAUCCUAUCCAUUUGC [hsa-miR-4694-5p] | 25.3 | 24.2 | -15.4
GUGGGCGGGGGCAGGUGUGUG [hsa-miR-1228-5p] | 64.8 | -5.58 | 15.3
UCAAAUGCAGAUCCUGACUUC [hsa-miR-7853-5p] | 42.1 | -15.6 | 14
CUGGACUGAGCCGUGCUACUGG [hsa-miR-1269a] | 52.7 | 6.41 | -26.1
UUCUCUCUGUCUUUCUCUCUCAG [hsa-miR-6873-3p] | 35.2 | -19 | 46.6
UCGGGGAGUCUGGGGUCCGGAAU [hsa-miR-6889-5p] | 30.7 | 6.17 | 3.52
UUUCUAUUUCUCAGUGGGGCUC [hsa-miR-4482-3p] | 21.2 | 31.6 | 0.737
CAGCCAGCCCCUGCUCACCCCU [hsa-miR-6858-3p] | 30.6 | 16.5 | 3.04
UUUCCAUAGGUGAUGAGUCAC [hsa-miR-587] | 86.7 | -21.6 | 39.4
GCUGACAGCAGGGCUGGCCGCU [hsa-miR-4526] | 59.2 | -0.679 | 16.9
CAGAUCAUGGGACUGUCUCAG [hsa-miR-5694] | 66.3 | -16.1 | 22.8

Source: the supplement of paper PMC10899765
